Experiments:
[1] = system: ATM-L TALEN L3-1 (in cells) A252T,Q505K,Q745P (full TALE construct numbering) (synthetic construct); assay: cell_activity; conditions: U2OS
[2] = system: ATM-L TALEN L3-2 (in cells) A252T,L338S,Q505K,Q745P (full TALE construct numbering) (synthetic construct); assay: cell_activity; conditions: U2OS
[3] = system: ATM-L TALEN L1-2 (A252T) A252T (full TALE construct numbering) (synthetic construct); assay: cleavage_in_vitro; conditions: canonical 6.3% in same experiment
[4] = system: canonical ATM-R TALEN (synthetic construct); assay: cleavage_in_vitro; conditions: 12 nM, 90 min, paired with canonical ATM-L

Sequence	activity [1] [% indels]	activity [2] [% indels]	further results
GGAAATGGGATACTGAGT (double strand) [OffA17 left half-site]	< 0.001		activity ([2]; HEK293 0.025%): < 0.001 % indels; activity [3]: 0.3 % cleavage
TAGATTGAAATGCTGTTT (double strand) [OffA23 left half-site]	< 0.001	< 0.001	
TGAATAGGAAATATATTT (double strand) [OffA1 left half-site]	< 0.001	0.002	
TGAATTGAGAGAAGCATT (double strand) [OffA11 left half-site]			activity ([1]; control 0.001%, not significant): 0.002 % indels; activity ([2]; not significant, HEK293 <0.001%): 0.002 % indels
TGAATTGGGATGCTGTTT (double strand) [ATM left half-site on-target]	7.04		activity ([2]; HEK293 23.26%): 7.97 % indels
TTTATTTTACTGTCTTTA (double strand) [ATM right half-site on-target (sense strand)]			activity [4]: 31.5 % cleavage

From patent US20240200044
